# Results as given in PMC1847702 (PLoS ONE, 2007).
# B1: His-tagged elaD, bacterially expressed (enzyme)
# chain: MMVTVVSNYCQLSQTQLSQTFAEKFTVTEELLQSLKKTALSGDEESIELLHNIALGYDKFGKEAEDILYHIVRTPTNETLSIIRLIKNACLKLYNLAHIATNSPLKSHDSDDLLFKKLFSPSKLMTIIGDEIPLISEKQSLSKVLLNDENNELSDGTNFWDKNRQLTTDEIACYLQKIAANAKNTQVNYPTGLYVPYSTRTHLEDALNENIKSDPSWPNEVQLFPINTGGHWILVSLQKIVNKKNNKLQIKCVIFNSLRALGYDKENSLKRVINSFNSELMGEMSNNNIKVHLNEPEIIFLHADLQQYLSQSCGAFVCMAAQEVIEQRESNSDSAPYTLLKNHADRFKKYSAEEQYEIDFQHRLANRNCYLDKYGDANINHYYRNLEIKHSQPKNRASGKRVS
# notes: also called recombinant elaD
# Molecular target: T1, ubiquitin-vinylmethylester (UniProt P0CG48 1-76, vinylmethylester (Michael acceptor) added to the C-terminus)
# T1 construct: also called ubiquitin-VME; ubiquitin probe
# Assay: covalent adduct formation with electrophilic (activity-based) probe, SDS-PAGE and Coomassie staining
# Conditions: both partners purified
binder,measurement,value
B1,binding result,binds
